Reference: publication PMC10666096 (Proceedings of the National Academy of Sciences of the …, 2023)

Molecular target: the molecule itself
Assay: single-molecule photobleaching analysis

B1: Cyanine-5 labeled N43S Fluc-Bpe (natural protein, Bordetella pertussis)
chain: MLTYAPLNFIAIGIGATLGAWLRWVLGLKLNGAGWPWGTLTASLVGGYLIGVMVALIASHPEWPAWIRLAAVTGFLGGLTTFSTFSAETVDMLSRGVYATAAAYAGASLAGSLAMTGLGLATVRLLLC
modifications: Cy5 (Cyanine5-maleimide) on the cysteine of R128C
stoichiometry N: 2
